Measurements from US20060204957A1, “Mta1s, a steriod hormone receptor corepressor” (priority 2002, published 2006).

Biological target: Estrogen Receptor α (ER) (UniProt P03372)
Assay: cell-based or functional assay

Estrogen Receptor α (ER), sequence (P03372 whole entry): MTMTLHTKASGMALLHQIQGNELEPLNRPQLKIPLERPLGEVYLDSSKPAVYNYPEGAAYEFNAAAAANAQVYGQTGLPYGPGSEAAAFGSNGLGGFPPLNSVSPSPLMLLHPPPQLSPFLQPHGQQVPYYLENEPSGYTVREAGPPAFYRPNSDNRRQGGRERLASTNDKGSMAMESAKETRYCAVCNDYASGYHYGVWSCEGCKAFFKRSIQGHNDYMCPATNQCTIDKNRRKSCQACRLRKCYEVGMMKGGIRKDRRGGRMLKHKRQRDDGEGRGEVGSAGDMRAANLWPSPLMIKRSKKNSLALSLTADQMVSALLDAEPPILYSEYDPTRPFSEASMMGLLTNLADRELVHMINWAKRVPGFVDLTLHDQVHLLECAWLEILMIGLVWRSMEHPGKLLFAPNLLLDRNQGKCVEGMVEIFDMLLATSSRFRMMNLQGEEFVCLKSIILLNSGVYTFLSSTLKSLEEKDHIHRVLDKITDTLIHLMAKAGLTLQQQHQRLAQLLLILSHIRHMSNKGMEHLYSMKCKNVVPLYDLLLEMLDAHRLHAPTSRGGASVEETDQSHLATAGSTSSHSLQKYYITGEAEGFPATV

presence of ERα in the nucleus of estradiol stimulated MCF-7 cells: > 90%
Substance: MTA1s-del (from UniProt Q13330 1-397)
